# Laboratory results reported in the DeepSol protein solubility set.
# Test: soluble on expression in E. coli; label from the status in PepcDB or PDB records
row,Sequence,soluble on expression in E. coli
1,MGSDKIHHHHHHMPAMQHTQPSRPQLVYLAFGPATYHQEACFSIVSALAQLGSAAGEAMDIQVYTDNAQPYARLPVTVHLLDEATRQAWNAPHGYHFRSKHVLLRQVLQQHPLAVLIDTDTFFRTSPLHLFARVAPNRLLCNAIGTRYGADQKCLLYKNLLAILESRGLADCQMPLVNSGVIGLTAENCDTLDRSIAMMDEFYPLAREAYTLEEFCLAVAAYRNLELAECTDVIHHYWSRKAQFRAKIQAWLRKHEHDPLSPPALADVALVNDQLPRPPTLHRLGYKALSLTLPSHERQFARELLYGCYPYPNEFDRACASAWWDKALENLNDRYGHVEPERLRQCLRHPGLRLSLGERRKDIEAHLLRSTQA,not soluble
2,MGSDKIHHHHHHMPANDFVSPDSIRAQFSAAMSLMYKQEVPLYGTLLELVSEINQQVMAQQPEVAEALRWTGEIERLDQERHGAIRVGTAEELATIARLFAVMGMQPVGYYDLSSAGVPVHSTAFRAVHEQSLHVSPFRVFTSLLRLELIDNPQLRELAQSILAKRQIFTSRALELIAQCEREGGLDAADAETFVQEALHTFRWHQDATVTAEQYQQLHDQHRLIADVVAFKGPHINHLTPRTLDIDAIQLGMPAKGIPPKAVVEGPPTRRHPILLRQTSFKALQETVAFRDQQGREGSHTARFGEIEQRGAALTPKGRQLYDKLLDATRVALGGAPAEANAERYMALLQANFAEFPDDLAQMREQGLAYFRYFATEKGLAARDQEGRPTTLQGLIDAGHVHFEALVYEDFLPVSAAGIFQSNLGDDAQAEYGSNANREAFEAALGLQVQDELALYAQSERRSLQACAQALNLGSM,not soluble
3,MGSDKIHHHHHHMPEEIVTRVITFFFPYDSKVEGKNDCVDTYKIHTFPEYENSDWYRGDPRDHSNGQPNGHEMWGHGQIGWWQKDENGWHWYWEDESNMPRPTQGLSEIMSTTTTTGSPLSIYSTTPSDAPETYSDTVLSVVLGF,not soluble
4,MGSDKIHHHHHHMPGFSADLDCVPGSIRSQVEENYRVWRRAWITSSAQPAVNSSGRALRLQPRHTAQRRTASESGADAGGELNGITIPTTATTRYAERRGISIVRTYADEGKSGLRIDGRRALQQLIKDVEGGTADFQIILVYDVSRWGRFQDADESAYYECICRRAGIQVAYCAEQFENDGSPVSTIVKGVKRAMAREYSRELSAKVFAGQCRLIELGYRQGSPAGFGLRRVLIDQQGSSKGMLARGEQKSLQTDRVVLMPGPGDEIRIVHQIYRWFIDEGLGDSEIAMRLNSIRVRTDFDRYWTRATVHEVLTNEKYIGNNVYNRISFKLKKLRVVNTPDMWDQKGRRV,not soluble
5,MGSDKIHHHHHHMPITFVDRESELKFLESLWKRRNSFVPVYGRRRIGKTRLVKEFIKGKPSVYYLSRNSSYNDNLYGFSQVVLEAYPSPYLTPKSFSTFTDIFRYLSEKGKVVVVIDEFPYLINSDKRILSEFQYIIDEIVRNSEIHLILVGSSIGMMEEHVLSQKSPLYGRRDGQIRLHSLDFFSSWKLLGVSLEEAIKIYGVTGGIPAYLILFKKFEDLKNVAFSKQGFLYAEADFLLSSELREPRVYKLILKAIAEGKRRFNEISTFTGIPRPNLFKYIEVLERLGLLRREAPITAPPKTKNTRYKIVDNYIAFYFRFIEKYRHEIELESINFWEEFLEDYNNYLGEVFEDIACQFLVRLNKKRMFPFRFSKIGRWWHKNEEIDLVALDKREKRASFIEVKWKTLKEGEARSILRDLERKSKLVGLDYWNKNYGLIAKHIEGKENLREEGFLAWDLRDFELVKKE,not soluble
6,MGSDKIHHHHHHMPKILKFNEEARRALERGVDKVANAVKVTLGPKGRNVVIEKSWGSPTITNDGVSIAKEIELEDKFENLGAQLVKEVASKTNDVAGDGTTTATVLAQAMIKEGLKNVAAGANPILLKRGIDKAVEKAVEEIKKVSKKLSGREDIAHVAAISANSAEIGELIAEAMDKVGEDGVITVEDSKTLETYVEFTEGMQFDRGYISPYFVTDAEKMEVVLKEPFILITDRKLSAVKPLIPILEKVAQTGKPLLVIAEDVEGEVLTTLVLNKLKGTLQSCAVKAPGFGERRKAMLQDIAILTGGQVASEELGINLEDLTLEDLGRADLVRVKKDETIIIGGKGDPEAIKKRIAQIKAQIEETTSEYEKETLQERMAKLAGGVAVIKVGAATETELKEKKHRIEDALSATRAAVEEGIVPGGGVTLLRARKAVEKVIEELEGDEKIGAQIVYKALSAPIKQIAENAGYDGAVIIEKILSNDDPAYGFDALRGEYCNMFERGIIDPAKVTRSALQNAASIAGMLLTTEVLIVEKPEEKKETPSMPEEF,not soluble
7,MGSDKIHHHHHHMPKITKIEVQKKNKERFNLFLDEQFEMGIDIDTLVKFNLKKGQQLEAADMAEIQKYDHYRIGLNKAIQYLSYKKRTEKEVIQYLQKEEISEQAISEVIEYCYREKLIDHQDYAESLKNTMIRTTDKGPKIYQQKLYQLGIEPNIIEIFTELYREQQELDDIIQIAEKISKTKKGPQNKVKEKVMQSLIQKGFEMETIHAVLNEMDFTQDEAVLDDLLQRDLEKIYNKNRKKYTQQKLISKTIEGLMRKGYKYDKIKAKLEESGIADGTEEIE,not soluble
8,MGSDKIHHHHHHMPMIHYIFNREIVPPAIEPLLKQLFSGQNFTQSDRLLGYSKGRGITWFLNTQAELGINIVLRHYYRGGLFGKVVKDRYLFQRIDQTRAVQEFNLLTQMQRWHLPVPRPIAVEINKQSIFYRAKIMLEKIEHTQDLSKLLQTQPLVAEQYQQLGQLIRQLHDHQIHHSDLNIHNILLDDNGKFWLIDFDKCCIKAGEEWKQANLNRLLRSFHKEQTRLGIQFHQQNWQSLLTGYQQHNQGDNR,not soluble
9,MGSDKIHHHHHHMPSTFESQLFFSRPFLSKRQIQRAQKNTISDYRNYNQKKLAVFKFLSDLCVQLKFPRKTLETAVYFYQRYHLFNRFETEVCYTVATSCLTLGCKEVETIKKTNDICTLSLRLRNVVKINTDILENFKKRVFQIELRILESCSFDYRVNNYVHIDEYVIKIGRELSFDYKLCNLAWVIAYDALKLETILVIPQHSIALAILKIAYELLDNKNWSSKRYSLFETDEKSVNEAYFDIVNFYINSFDMCDLQRHLPADLLPIGVERFMELKKNAGPESGLPQIPDHLLNADPYITITRDNNVQERRYVLSLELINGESSINSSTRHA,not soluble
10,MGSDKIHHHHHHMPTSALDGKDTAAIQAATAEVAVYDRSNWGLIRVSDDDRLRFLHNQSTNDFQSLKPGQGCETVMVTSTARTIDLVSSYVLNDAVILLVSSSRREFLLQWLDRYIFFADKVQLTDITDETATLSIIGPGSDAVVEKLGAGEIIGQPHGNHITIDGGVVAAVGSGLASPGYTLILPVSQKQQVWQQILDSGAVELSDRAWDTLRILQGRPAPDAELTDDYNPLEVGLWQTISFSKGCYIGQETIARLNTYKGVKQHLWGIRLNAPAEIGDSINIGDEKVGKLTSYTETPDGYFGLAYIRSKAGGVGLKVQVGNSEGEVVAIPFVSHEYP,not soluble
11,MGSDKIHHHHHHMPYSLHLPGYSIGDNAYEKIDAIVSTYGSSVAVIGGKTALEKSRPRLEAALAHSGIEVVDWIVYGHNCTYERVDALCGMPTVQQADMIFGVGGGRAVDTVKVVANRLGKPLFAFPTLGSNCAAATNLSVVYKDDDSLAGYDFQRGPCHHVFIDTTVIAQSPAELLWAGIADGMSKECEVKLQSRGRNLSHAPLMGRNVCSAVTPALMDFGLQALEDCRAGRSSQAIEEVALAIIMTCGYVSNMAVDPGQAYYYNSSLAHAFYNSSTAFPECVGKHLHGEIVSYGVLALLQYDGDMETKRRYVEFYKQMGFPLTLADLDLQESDIPELVSHVPATTEWKTGDFDLERFAQAIIDAQVFA,not soluble
12,MGSDKIHHHHHHMQAKLTKKEFIEWLKTSEGKQFNVDLWYGFQCFDYANAGWKVLFGLLLKGLGAKDIPFANNFDGLATVYQNTPDFLAQPGDMVVFGSNYGAGYGHVAWVIEATLDYIIVYEQNWLGGGWTDRIEQPGWGWEKVTRRQHAYDFPMWFIRPNFKSETAPRSIQSPTQASKKETAKPQPKAVELKIIKDVVKGYDLPKRGGNPKGIVIHNDAGSKGATAEAYRNGLVNAPLSRLEAGIAHSYVSGNTVWQALDESQVGWHTANQLGNKYYYGIEVCQSMGADNATFLKNEQATFQECARLLKKWGLPANRNTIRLHNEFTSTSCPHRSSVLHTGFDPVTRGLLPEDKQLQLKDYFIKQIRVYMDGKIPVATVSNESSASSNTVKPVASAWKRNKYGTYYMEESARFTNGNQPITVRKIGPFLSCPVAYQFQPGGYCDYTEVMLQDGHVWVGYTWEGQRYYLPIRTWNGSAPPNQILGDLWGEIS,not soluble
